The values that follow come from patent US20110294728.

The subject of one series is HIV-1 integrase (HIV-1). Kind of series: FP.
The target of series [1] is monomeric p51 subunit of HIV-1 RT (UniProt P03366). Description: stopped-flow, FRET between Trp of RT and bis-ANS, RT incubated with PAW.
For series [2] the target is unchanged. Kind of series: stopped-flow, FRET between Trp of RT and bis-ANS, without PAW.

Where two headings read alike, the source gives them in different places.

Consider 21-mer U5 LTR end oligonucleotide, for which the concentration for half-maximal inhibition (IC50) was 15.2 µM in the series with HIV-1 integrase (HIV-1) and 12.7 µM with HIV-1 integrase (HIV-1) (3'-processing active, value is IC50 of PAW peptide, 10 mM MgCl2, 37 C).
Regarding monomeric p66 subunit of HIV-1 RT, the “kdis (dissociation rate constant of the RT heterodimer in 10% acetonitrile)” value is reported as “kdis=1.42±0.007 s^-1” in series [1] and “a dissociation rate constant kdis of 5.30±0.01 s^-1” in series [2].

The IC50 is the concentration that gives 50% inhibition. A higher IC50 goes with lower potency.
